Reference: the DeepSol protein solubility set

Test: soluble on expression in E. coli; label from the status in PepcDB or PDB records

| Sequence | soluble on expression in E. coli |
| --- | --- |
| MSTEIKTQVVVLGAGPAGYSAAFRCADLGLETVIVERYNTLGGVCLNVGCIPSKALLHVAKVIEEAKALAEHGIVFGEPKTDIDKIRTWKEKVINQLTGGLAGMAKGRKVKVVNGLGKFTGANTLEVEGENGKTVINFDNAIIAAGSRPIQLPFIPHEDPRIWDSTDALELKEVPERLLVMGGGIIGLEMGTVYHALGSQIDVVEMFDQVIPAADKDIVKVFTKRISKKFNLMLETKVTAVEAKEDGIYVTMEGKKAPAEPQRYDAVLVAIGRVPNGKNLDAGKAGVEVDDRGFIRVDKQLRTNVPHIFAIGDIVGQPMLAHKGVHEGHVAAEVIAGKKHYFDPKVIPSIAYTEPEVAWVGLTEKEAKEKGISYETATFPWAASGRAIASDCADGMTKLIFDKESHRVIGGAIVGTNGGELLGEIGLAIEMGCDAEDIALTIHAHPTLHESVGLAAEVFEGSITDLPNPKAKKK | soluble |
| MSTENAHLQKEDIVIESWLHKKGEHIRNWRPRYFILFRDGTLLGFRSKPKEDQPLPEPLNNFMIRDAATVCLDKPRPNMFIVRCLQWTTVIERTFYADSADFRQMWIEAIQAVSSHNRLKENAGNTSMQEEDTNGNPSGESDVNMDATSTRSDNDFESTVMNIDEPEEVPRKNTVTMDDFDFLKVLGQGTFGKVILCREKSSDKLYAIKIIRKEMVVDRSEVAHTLTENRVLYACVHPFLTLLKYSFQAQYHICFVMEFANGGELFTHLQRCKTFSEARTRFYGSEIILALGYLHHRNIVYRDMKLENLLLDRDGHIKITDFGLCKEEIKYGDKTSTFCGTPEYLAPEVIEDIDYDRSVDWWGVGVVMYEMMCGRLPFSAKENGKLFELITTCDLKFPNRLSPEAVTLLSGLLERVPAKRLGAGPDDAREVSRAEFFKDVDWEATLRKEVEPPFKPNVMSETDTSFFDRVRYVSILLKVSEAI | not soluble |
| MSTESSHQVHTATVPVRWTDFDRFGHVTNSAYVDLAQEARTVWANDNFAVKGHQIPAVFVRHIEVDYLRPIMPSTSQVVVETEVVHIGNTSFTTRQHLKDGEGHVCATVIAVQVAVDMLTTRPRAIAAHELQVLTQFAASTQQESEQ | not soluble |
| MSTILSLAPQNVWKHFYSLTQIPRPSGHMEKVTEFLINFGKGLGLESFVDEAGNVIIRKPATPGMENRKGVILQAHMDMVPQKNNDTVHDFEKDPIETYIDGDWVKAKGTTLGADNGLGVAAIMAVLEANDLKHGPLEALITKDEETGMYGAFGLKPGTVNGEILLNLDSEDEGELYIGCAGGMDVTATLEYKEVAPEEGDVAVKVSLKGLRGGHSGLEINEGRANANKLLVRFVREAVASYEARLVSWDGGNMRNAIPREACAVLAIPAENEEELLGLVKYCEDLFNEEFSAIETPISFTAERVELPAGEVPEEIQDNLIDAIFACQNGVTRMIPTVPDTVETSSNLAIITIGGGKAEIKILARSSSDSMKEYLTTSLESCFSMAGMKVEMTGGYSGWQPNVESPILHAMKESYKQQFGVEPAVKVIHAGLECGIIGAIIPGLDMISFGPTLRSPHSPDERALIPTVQKFYDFLVATLAQTPTKLEHHHHHH | soluble |
| MSTLRLLISDSYDPWFNLAVEECIFRQMPATQRVLFLWRNADTVVIGRAQNPWKECNTRRMEEDNVRLARRSSGGGAVFHDLGNTCFTFMAGKPEYDKTISTSIVLNALNALGVSAEASGRNDLVVKTVEGDRKVSGSAYRETKDRGFHHGTLLLNADLSRLANYLNPDKKKLAAKGITSVRSRVTNLTELLPGITHEQVCEAITEAFFAHYGERVEAEIISPNKTPDLPNFAETFARQSSWEWNFGQAPAFSHLLDERFTWGGVELHFDVEKGHITRAQVFTDSLNPAPLEALAGRLQGCLYRADMLQQECEALLVDFPEQEKELRELSAWMAGAVR | soluble |
| MSTNKRRTIQIEITEEHFKDLEKALEALKGTQLPFSTTVEQFVELILSNYVATSNKISNLAESGFDVASIQQELEKIGSAAGADDALKSFLDELLKTSQKSFSNTKDGKKNDDDNNSSSKS | soluble |
| MSTPFGLDLGNNNSVLAVARNRGIDIVVNEVSNRSTPSVVGFGPKNRYLGETGKNKQTSNIKNTVANLKRIIGLDYHHPDFEQESKHFTSKLVELDDKKTGAEVRFAGEKHVFSATQLAAMFIDKVKDTVKQDTKANITDVCIAVPPWYTEEQRYNIADAARIAGLNPVRIVNDVTAAGVSYGIFKTDLPEGEEKPRIVAFVDIGHSSYTCSIMAFKKGQLKVLGTACDKHFGGRDFDLAITEHFADEFKTKYKIDIRENPKAYNRILTAAEKLKKVLSANTNAPFSVESVMNDVDVSSQLSREELEELVKPLLERVTEPVTKALAQAKLSAEEVDFVEIIGGTTRIPTLKQSISEAFGKPLSTTLNQDEAIAKGAAFICAIHSPTLRVRPFKFEDIHPYSVSYSWDKQVEDEDHMEVFPAGSSFPSTKLITLNRTGDFSMAASYTDITQLPPNTPEQIANWEITGVQLPEGQDSVPVKLKLRCDPSGLHTIEEAYTIEDIEAGSDTKTVKKDDLTIVAHTFGLDAKKLNELIEKENEMLAQDKLVAETEDRKNTLEEYIYTLRGKLEEEYAPFASDAEKTKLQGMLNKAEEWLYDEGFDSIKAKYIAKYEELASLGNIIRGRYLAKEEEKKQAIRSKQEASQMAAMAEKLAAQRKAEAEKKEEKKDTEGDVDMD | soluble |
| MSTSCFPDVPLELTTRHPRPLQACPERHSQSTHDSLGIWVKRREEKPMERMSKDYDIVQIPRDVGYSDLPRKMEVGKPFEINGSVYVCEKRGGEIMKICSEDSGRTGVPVLNKGFYVVRRM | not soluble |
| MSTTTDYDDNDVKIITKPVQSKNPVLIEGFPGIGLVGNIASQHIIEELNMEYIGSIDSRYFPSIAVLYEGLINMPVRIYENVEHNLIIVISDIPISHSVSYDVSNALVDWAEAINVKEIASIAGIAIMDGGHKVFGAATTPEMLDKIRDKVEIFQMGTISGISGSVMAECLLRGIPAISLLGATRTQNPDPRAASSVIGVLNELYGLSISTDRLIEQAERIEIELQRLAEDVQATERKGEVKKEFPMYG | soluble |
| MSTTVEKIKAIEDEMARTQKNKATSFHLGQLKAKLAKLRRELLTSASSGSGGGAGIGFDVARTGVASVGFVGFPSVGKSTLLSKLTGTESEAAEYEFTTLVTVPGVIRYKGAKIQMLDLPGIIDGAKDGRGRGKQVIAVARTCNLLFIILDVNKPLHHKQIIEKELEGVGIRLNKTPPDILIKKKEKGGISITNTVPLTHLGNDEIRAVMSEYRINSAEIAFRCDATVDDLIDVLEASSRRYMPAIYVLNKIDSLSIEELELLYRIPNAVPISSGQDWNLDELLQVMWDRLNLVRIYTKPKGQIPDFTDPVVLRSDRCSVKDFCNQIHKSLVDDFRNALVYGSSVKHQPQYVGLSHILEDEDVVTILKK | soluble |
| MSTYEGRWKTVKVEIEDGIAFVILNRPERRNAMSPTLNREMIDVLETLEQDPAAGVLVLTGAGEAWTAGMDLKEYFREVDAGPEILQEKIRREASQWQWKLLRMYAKPTIAMVNGWCFGGGFAPLVACDLAICADEATFGLSEINWGIPPGNLVSKAMADTVGHRQSLYYIMTGKTFGGQKAAEMGLVNESVPLAQLREVTIELARNLLEKNPVVLRAAKHGFKRCRELTWEQNEDYLYAKLDQSRLLDTEGGREQGMKQFLDDKSIKPGLQAYKR | soluble |
| MSTYYQSAPVLVHAHAYQPPLSPPQSPPHGYLPFYTSNPMMCSTSPLYFSPQMVQPLPPQQHYHMYPSTSAGPGMYYTDFNPHYVQIQISQSVSHDKILAGGPKDNCTVARGRKTHVDHRQLSIEKLHPLLLQFKLTTSELETNAYPMRRDGSTKAVSIADTVYTQNKKMFLDDYDMSRNCSRCNKEFKLSPNGTMIRSTGICRYHNRGVAINGKRDTFRKRYSCCNEEFNVALGCKFSDVHVTDQLFKKELSTFVSTPVPVPNDQRSTRVYALDCEMVYTIAGPALARLTMVDMQRNRVLDVFVKPPTDVLDPNTEFSGLTMEQINSAPDTLKTCHQKLFKYVNADTILIGHSLESDLKAMRVVHKNVIDTAILFRSTRDTKVALKVLSAKLLHKNIQGDNEDAIGHDSMEDALTCVDLIFYGLRNPESIAIREANTNC | not soluble |
